The binders below were run against T1, CD3 epsilon homodimer protein (UniProt P07766 23-126) (assay: SPR Biacore T200, CD3 epsilon homodimer on chip, antibody as analyte;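 further: homodimer amine-coupled to a CM4 sensor chip, run at 25 °C in HBS-EP+ buffer, with kinetic parameters derived in Biacore T200 Evaluation Software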).
T1 construct: also called CD3 (CD3 epsilon)
T1 sequence (P07766 23-126): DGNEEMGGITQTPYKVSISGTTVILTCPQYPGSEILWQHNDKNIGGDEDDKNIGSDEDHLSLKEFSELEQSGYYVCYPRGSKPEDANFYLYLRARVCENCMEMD
Protocol: An appropriate amount of CD3 epsilon homodimer protein was immobilized onto Sensor chip CM4 (GE Healthcare Japan Corp.) by the amine coupling method. Then, the antibody having an appropriate concentration was injected thereto as an analyte and allowed to interact with the CD3 epsilon homodimer protein on the sensor chip. Then, the sensor chip was regenerated by the injection of 10 mmol/L glycine-HCl (pH 1.5). The assay was conducted at 25 degrees C., and HBS-EP+(GE Healthcare Japan Corp.) was used as a running buffer. […] Each parameter was calculated using Biacore T200 Evaluation Software (GE Healthcare Japan Corp.).
Specifically, when the amount of the antibody comprising CE115HA000 bound was defined as X and the amount of the H chain one-amino acid altered form bound was defined as Y, a value of Z (ratio of amounts bound)=Y/X was used.

Binder | KD ratio (KD of CE115HA000 / KD of altered form)
CE115HA000 H chain altered form A52aS (antibody, human IgG1, kappa, L234A L235A, N297A, name in Kabat numbering, one-arm antibody) heavy: QVQLVESGGGVVQPGRSLRLSCAASGFTFSNAWMHWVRQAPGKGLEWVAQIKSKSNNYATYYAESVKGRFTISRDDSKNSLYLQMNSLKTEDTAVYYCRYVHYGAYYGVDAWGQGTTVTVSSASTKGPSVFPLAPSSKSTSGGTAALGCLVKDYFPEPVTVSWNSGALTSGVHTFPAVLQSSGLYSLSSVVTVPSSSLGTQTYICNVNHKPSNTKVDKKVEPKSCDKTHTCPPCPAPEAAGGPSVFLFPPKPKDTLMISRTPEVTCVVVDVSHEDPEVKFNWYVDGVEVHNAKTKPREEQYASTYRVVSVLTVLHQDWLNGKEYKCKVSNKALPAPIEKTISKAKGQPREPQVYTLPPSRCELTKNQVSLSCAVKGFYPSDIAVEWESNGQPENNYKTTPPVLDSDGSFFLVSKLTVDKSRWQQGNVFSCSVMHEALHNHYTQKSLSLSPDYKDDDDK EPKSSDKTHTCPPCPAPELLGGPSVFLFPPKPKDTLMISRTPEVTCVVVDVSHEDPEVKFNWYVDGVEVHNAKTKPREEQYNSTYRVVSVLTVLHQDWLNGKEYKCKVSNKALPAPIEKTISKAKGQPREPQVCTLPPSRDELTKNQVSLWCLVKGFYPSDIAVEWESNGQPENNYKTTPPVLDSDGSFFLYSKLTVDKSRWQQGNVFSCSVMHEALHNRYTQKSLSLSP light: DIVMTQSPLSLPVTPGEPASISCRSSQSLVHSNRNTYLHWYQQKPGQAPRLLIYKVSNRFSGVPDRFSGSGSGTDFTLKISRVEAEDVGVYYCGQGTQVPYTFGQGTKLEIKRTVAAPSVFIFPPSDEQLKSGTASVVCLLNNFYPREAKVQWKVDNALQSGNSQESVTEQDSKDSTYSLSSTLTLSKADYEKHKVYACEVTHQGLSSPVTKSFNRGEC | 0.82
CE115HA000 H chain altered form A52aV (antibody, human IgG1, kappa, L234A L235A, N297A, name in Kabat numbering, one-arm antibody) heavy: QVQLVESGGGVVQPGRSLRLSCAASGFTFSNAWMHWVRQAPGKGLEWVAQIKVKSNNYATYYAESVKGRFTISRDDSKNSLYLQMNSLKTEDTAVYYCRYVHYGAYYGVDAWGQGTTVTVSSASTKGPSVFPLAPSSKSTSGGTAALGCLVKDYFPEPVTVSWNSGALTSGVHTFPAVLQSSGLYSLSSVVTVPSSSLGTQTYICNVNHKPSNTKVDKKVEPKSCDKTHTCPPCPAPEAAGGPSVFLFPPKPKDTLMISRTPEVTCVVVDVSHEDPEVKFNWYVDGVEVHNAKTKPREEQYASTYRVVSVLTVLHQDWLNGKEYKCKVSNKALPAPIEKTISKAKGQPREPQVYTLPPSRCELTKNQVSLSCAVKGFYPSDIAVEWESNGQPENNYKTTPPVLDSDGSFFLVSKLTVDKSRWQQGNVFSCSVMHEALHNHYTQKSLSLSPDYKDDDDK EPKSSDKTHTCPPCPAPELLGGPSVFLFPPKPKDTLMISRTPEVTCVVVDVSHEDPEVKFNWYVDGVEVHNAKTKPREEQYNSTYRVVSVLTVLHQDWLNGKEYKCKVSNKALPAPIEKTISKAKGQPREPQVCTLPPSRDELTKNQVSLWCLVKGFYPSDIAVEWESNGQPENNYKTTPPVLDSDGSFFLYSKLTVDKSRWQQGNVFSCSVMHEALHNRYTQKSLSLSP light: DIVMTQSPLSLPVTPGEPASISCRSSQSLVHSNRNTYLHWYQQKPGQAPRLLIYKVSNRFSGVPDRFSGSGSGTDFTLKISRVEAEDVGVYYCGQGTQVPYTFGQGTKLEIKRTVAAPSVFIFPPSDEQLKSGTASVVCLLNNFYPREAKVQWKVDNALQSGNSQESVTEQDSKDSTYSLSSTLTLSKADYEKHKVYACEVTHQGLSSPVTKSFNRGEC | 0.95
CE115HA000 H chain altered form A52aY (antibody, human IgG1, kappa, L234A L235A, N297A, name in Kabat numbering, one-arm antibody) heavy: QVQLVESGGGVVQPGRSLRLSCAASGFTFSNAWMHWVRQAPGKGLEWVAQIKYKSNNYATYYAESVKGRFTISRDDSKNSLYLQMNSLKTEDTAVYYCRYVHYGAYYGVDAWGQGTTVTVSSASTKGPSVFPLAPSSKSTSGGTAALGCLVKDYFPEPVTVSWNSGALTSGVHTFPAVLQSSGLYSLSSVVTVPSSSLGTQTYICNVNHKPSNTKVDKKVEPKSCDKTHTCPPCPAPEAAGGPSVFLFPPKPKDTLMISRTPEVTCVVVDVSHEDPEVKFNWYVDGVEVHNAKTKPREEQYASTYRVVSVLTVLHQDWLNGKEYKCKVSNKALPAPIEKTISKAKGQPREPQVYTLPPSRCELTKNQVSLSCAVKGFYPSDIAVEWESNGQPENNYKTTPPVLDSDGSFFLVSKLTVDKSRWQQGNVFSCSVMHEALHNHYTQKSLSLSPDYKDDDDK EPKSSDKTHTCPPCPAPELLGGPSVFLFPPKPKDTLMISRTPEVTCVVVDVSHEDPEVKFNWYVDGVEVHNAKTKPREEQYNSTYRVVSVLTVLHQDWLNGKEYKCKVSNKALPAPIEKTISKAKGQPREPQVCTLPPSRDELTKNQVSLWCLVKGFYPSDIAVEWESNGQPENNYKTTPPVLDSDGSFFLYSKLTVDKSRWQQGNVFSCSVMHEALHNRYTQKSLSLSP light: DIVMTQSPLSLPVTPGEPASISCRSSQSLVHSNRNTYLHWYQQKPGQAPRLLIYKVSNRFSGVPDRFSGSGSGTDFTLKISRVEAEDVGVYYCGQGTQVPYTFGQGTKLEIKRTVAAPSVFIFPPSDEQLKSGTASVVCLLNNFYPREAKVQWKVDNALQSGNSQESVTEQDSKDSTYSLSSTLTLSKADYEKHKVYACEVTHQGLSSPVTKSFNRGEC | 7.71
CE115HA000 H chain altered form A56D (antibody, human IgG1, kappa, L234A L235A, N297A, name in Kabat numbering, one-arm antibody) heavy: QVQLVESGGGVVQPGRSLRLSCAASGFTFSNAWMHWVRQAPGKGLEWVAQIKAKSNNYDTYYAESVKGRFTISRDDSKNSLYLQMNSLKTEDTAVYYCRYVHYGAYYGVDAWGQGTTVTVSSASTKGPSVFPLAPSSKSTSGGTAALGCLVKDYFPEPVTVSWNSGALTSGVHTFPAVLQSSGLYSLSSVVTVPSSSLGTQTYICNVNHKPSNTKVDKKVEPKSCDKTHTCPPCPAPEAAGGPSVFLFPPKPKDTLMISRTPEVTCVVVDVSHEDPEVKFNWYVDGVEVHNAKTKPREEQYASTYRVVSVLTVLHQDWLNGKEYKCKVSNKALPAPIEKTISKAKGQPREPQVYTLPPSRCELTKNQVSLSCAVKGFYPSDIAVEWESNGQPENNYKTTPPVLDSDGSFFLVSKLTVDKSRWQQGNVFSCSVMHEALHNHYTQKSLSLSPDYKDDDDK EPKSSDKTHTCPPCPAPELLGGPSVFLFPPKPKDTLMISRTPEVTCVVVDVSHEDPEVKFNWYVDGVEVHNAKTKPREEQYNSTYRVVSVLTVLHQDWLNGKEYKCKVSNKALPAPIEKTISKAKGQPREPQVCTLPPSRDELTKNQVSLWCLVKGFYPSDIAVEWESNGQPENNYKTTPPVLDSDGSFFLYSKLTVDKSRWQQGNVFSCSVMHEALHNRYTQKSLSLSP light: DIVMTQSPLSLPVTPGEPASISCRSSQSLVHSNRNTYLHWYQQKPGQAPRLLIYKVSNRFSGVPDRFSGSGSGTDFTLKISRVEAEDVGVYYCGQGTQVPYTFGQGTKLEIKRTVAAPSVFIFPPSDEQLKSGTASVVCLLNNFYPREAKVQWKVDNALQSGNSQESVTEQDSKDSTYSLSSTLTLSKADYEKHKVYACEVTHQGLSSPVTKSFNRGEC | 0.71
CE115HA000 H chain altered form A56G (antibody, human IgG1, kappa, L234A L235A, N297A, name in Kabat numbering, one-arm antibody) heavy: QVQLVESGGGVVQPGRSLRLSCAASGFTFSNAWMHWVRQAPGKGLEWVAQIKAKSNNYGTYYAESVKGRFTISRDDSKNSLYLQMNSLKTEDTAVYYCRYVHYGAYYGVDAWGQGTTVTVSSASTKGPSVFPLAPSSKSTSGGTAALGCLVKDYFPEPVTVSWNSGALTSGVHTFPAVLQSSGLYSLSSVVTVPSSSLGTQTYICNVNHKPSNTKVDKKVEPKSCDKTHTCPPCPAPEAAGGPSVFLFPPKPKDTLMISRTPEVTCVVVDVSHEDPEVKFNWYVDGVEVHNAKTKPREEQYASTYRVVSVLTVLHQDWLNGKEYKCKVSNKALPAPIEKTISKAKGQPREPQVYTLPPSRCELTKNQVSLSCAVKGFYPSDIAVEWESNGQPENNYKTTPPVLDSDGSFFLVSKLTVDKSRWQQGNVFSCSVMHEALHNHYTQKSLSLSPDYKDDDDK EPKSSDKTHTCPPCPAPELLGGPSVFLFPPKPKDTLMISRTPEVTCVVVDVSHEDPEVKFNWYVDGVEVHNAKTKPREEQYNSTYRVVSVLTVLHQDWLNGKEYKCKVSNKALPAPIEKTISKAKGQPREPQVCTLPPSRDELTKNQVSLWCLVKGFYPSDIAVEWESNGQPENNYKTTPPVLDSDGSFFLYSKLTVDKSRWQQGNVFSCSVMHEALHNRYTQKSLSLSP light: DIVMTQSPLSLPVTPGEPASISCRSSQSLVHSNRNTYLHWYQQKPGQAPRLLIYKVSNRFSGVPDRFSGSGSGTDFTLKISRVEAEDVGVYYCGQGTQVPYTFGQGTKLEIKRTVAAPSVFIFPPSDEQLKSGTASVVCLLNNFYPREAKVQWKVDNALQSGNSQESVTEQDSKDSTYSLSSTLTLSKADYEKHKVYACEVTHQGLSSPVTKSFNRGEC | 0.59
CE115HA000 H chain altered form A56K (antibody, human IgG1, kappa, L234A L235A, N297A, name in Kabat numbering, one-arm antibody) heavy: QVQLVESGGGVVQPGRSLRLSCAASGFTFSNAWMHWVRQAPGKGLEWVAQIKAKSNNYKTYYAESVKGRFTISRDDSKNSLYLQMNSLKTEDTAVYYCRYVHYGAYYGVDAWGQGTTVTVSSASTKGPSVFPLAPSSKSTSGGTAALGCLVKDYFPEPVTVSWNSGALTSGVHTFPAVLQSSGLYSLSSVVTVPSSSLGTQTYICNVNHKPSNTKVDKKVEPKSCDKTHTCPPCPAPEAAGGPSVFLFPPKPKDTLMISRTPEVTCVVVDVSHEDPEVKFNWYVDGVEVHNAKTKPREEQYASTYRVVSVLTVLHQDWLNGKEYKCKVSNKALPAPIEKTISKAKGQPREPQVYTLPPSRCELTKNQVSLSCAVKGFYPSDIAVEWESNGQPENNYKTTPPVLDSDGSFFLVSKLTVDKSRWQQGNVFSCSVMHEALHNHYTQKSLSLSPDYKDDDDK EPKSSDKTHTCPPCPAPELLGGPSVFLFPPKPKDTLMISRTPEVTCVVVDVSHEDPEVKFNWYVDGVEVHNAKTKPREEQYNSTYRVVSVLTVLHQDWLNGKEYKCKVSNKALPAPIEKTISKAKGQPREPQVCTLPPSRDELTKNQVSLWCLVKGFYPSDIAVEWESNGQPENNYKTTPPVLDSDGSFFLYSKLTVDKSRWQQGNVFSCSVMHEALHNRYTQKSLSLSP light: DIVMTQSPLSLPVTPGEPASISCRSSQSLVHSNRNTYLHWYQQKPGQAPRLLIYKVSNRFSGVPDRFSGSGSGTDFTLKISRVEAEDVGVYYCGQGTQVPYTFGQGTKLEIKRTVAAPSVFIFPPSDEQLKSGTASVVCLLNNFYPREAKVQWKVDNALQSGNSQESVTEQDSKDSTYSLSSTLTLSKADYEKHKVYACEVTHQGLSSPVTKSFNRGEC | 1.32
